These results are taken from paper PMC10229228, “Structural insights into a regulatory mechanism of FIR RRM1–FUSE interaction”.

What all share (details): protein: recombinant; tags: N-terminal His6, removed by TEV; single strand
The target of series [1] is T1, FIR RRM1-2 WT (UniProt Q9UHX1-2 101-293). In words: ITC; ITC: 25 mM HEPES pH 7.5, 150 mM NaCl, 0.5 mM TCEP, 20 C; protein 160-240 uM titrated into ssDNA 40-50 uM. For orientation: Isothermal titration calorimetry measures the heat released or taken up as one component is titrated into another.
Series [2] has as its target T2, FIR RRM1-2 Y115F (UniProt Q9UHX1-2 101-293, Y115F). Described as above.
The target of series [3] is T2, FIR RRM1-2 Y115F. In words: X-ray crystallography (1.65 A); ITC: 25 mM HEPES pH 7.5, 150 mM NaCl, 0.5 mM TCEP, 20 C; protein 160-240 uM titrated into ssDNA 40-50 uM.
For series [4], the target named is T1, FIR RRM1-2 WT. Nature of the series: X-ray crystallography (2.05 A); ethylene glycol contacts the bound guanine; ITC: 25 mM HEPES pH 7.5, 150 mM NaCl, 0.5 mM TCEP, 20 C; protein 160-240 uM titrated into ssDNA 40-50 uM.

T1 sequence (Q9UHX1 118-310): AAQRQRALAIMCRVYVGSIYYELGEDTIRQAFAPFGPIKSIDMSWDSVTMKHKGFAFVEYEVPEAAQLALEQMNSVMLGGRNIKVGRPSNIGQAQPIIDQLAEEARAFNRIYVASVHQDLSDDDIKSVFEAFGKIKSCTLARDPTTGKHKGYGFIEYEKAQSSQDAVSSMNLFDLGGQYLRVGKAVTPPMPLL
T2 sequence (Q9UHX1 118-310 Y132F): as the sequence (Q9UHX1 118-310) above, with Y15F counted along it

For orientation: Kd means the equilibrium constant for the complex coming apart. For TTGTTTT (ssDNA), the Kd with FIR RRM1-2 WT [1] came out at 2 µM.

As for TAATTTT (ssDNA), the Kd with FIR RRM1-2 Y115F [2] was about 6 µM.

Turning to TTATTTT (ssDNA), the Kd in the series with FIR RRM1-2 WT [1] was 11 µM.

In the case of TTTTTATTTTGTGTT (ssDNA) [FUSE 15-nt], the binding result with FIR RRM1-2 Y115F [3] and with FIR RRM1-2 WT [4] was “binds” in each case.
